Data: patent US11738082B2, “High concentration protein formulations with reduced viscosity” (Bhami's Research Laboratory, Pvt. Ltd., priority 2017, dated 2023)
One block for each molecule: values may come before it.

Legend:
Rituximab (RITUXAN®) [1] = experiment: Size Exclusion Chromatography of formulated Rituximab on storage; type: physicochemical; details: storage at 25° C., formulated with tryptophan + nicotinic acid (acid form), 250 mg/mL, SEC
Experimental: The collected protein sample was stored at 4° C. […] The protein concentrations were experimentally determined using the extinction coefficient of 1.7

Rituximab (RITUXAN®) [2] = experiment: Percent reduction in aggregation of Rituximab by Size Exclusion Chromatography; type: physicochemical; details: with nicotinic acid and tryptophan, 250-275 mg/mL, versus control at 0 time point = 100%
Experimental: To the buffered antibody solutions, different aggregation reducing-agents were added individually or in combination and mixed until complete dissolution. […] The collected protein sample was stored at 4° C. […] The amount of reduction in aggregation is calculated setting the values at 0 time point equal to 100% in control (without any aggregation-reducing agent) and the reduction in aggregation in test samples (with aggregation-reducing agent) is expressed as percent reduction when compared to control at 0 time point.

Bevacizumab (AVASTIN®) = experiment: Size Exclusion Chromatography of formulated Bevacizumab on storage; type: physicochemical; details: storage at 25° C., formulated with tryptophan + nicotinic acid (acid form), SEC
Experimental: The collected protein sample was stored at 4° C. […] Reported protein concentrations represent the range of all protein samples in each Table or Figure. Specifically, reported values are the median plus or minus half the range. The protein concentrations were experimentally determined using the extinction coefficient of 1.54

[3] = tested on: Human Gamma Globulin (HGG), GLOBUCEL®; experiment: Viscosity of aqueous solutions of Human Gamma Globulin (Cambridge VISCOlab5000 or DV2T cone and plate viscometer)
Experimental: Commercially obtained human gamma globulin (HGG), GLOBUCEL® (50 mg/mL) containing pharmaceutical excipients (Maltose) was dialyzed against water for 24 hr at 4° C. with three changes. To the aqueous solution of HGG, either histidine or phosphate or citrate buffer was added from the stock concentration of 1000 mM for histidine buffer or 1000 mM for citrate buffer or 1000 mM for phosphate buffer, pH 6.0 to get a final concentration of 25 mM each. The HGG solutions in various buffers were concentrated to a final volume of less than 150 μL using Vivaspin centrifugal concentrators (Sartorius). The collected protein sample was stored at 4° C. […] The protein concentrations were experimentally determined using the extinction coefficient of 1.4
[formula] at 280 nm. The viscosities of the solution were measured either using a Cambridge Viscometer, VISCOlab5000 using 70 μL of sample at 25° C. or using a DV2T cone and plate viscometer using 1.5 mL of sample at 25° C. at extrapolated zero shear rate.
Commercially obtained human gamma globulin (HGG), GLOBUCEL® (50 mg/mL) containing pharmaceutical excipients (Maltose) was dialyzed against water for 24 hr at 4° C. with three changes. To the aqueous solution of HGG, either citrate-phosphate buffer pH 5.0 or citrate-phosphate buffer pH 6.0 or citrate-phosphate buffer pH 7.0 was added from the stock concentration of 1000 mM for citrate buffer at pH 5.0 or pH 6.0 or pH 7.0 to get a final concentration of 25 mM each. The HGG solutions in various pH buffers were concentrated to a final volume of less than 150 μL using Vivaspin centrifugal concentrators (Sartorius). The collected protein sample was stored at 4° C. […] The protein concentrations were experimentally determined using the extinction coefficient of 1.4
Commercially obtained human gamma globulin (HGG), GLOBUCEL® (50 mg/mL) containing pharmaceutical excipients (Maltose) was dialyzed against water for 24 hr at 4° C. with three changes. To the aqueous solution of HGG, phosphate/citrate/histidine Buffer was added from the stock concentration of 1000 mM phosphate/citrate/histidine buffer, pH 6.0 to get a final concentration of 25 mM. To the buffered HGG different amino acid or its derivative was added individually and mixed until complete dissolution. The excipient containing HGG was concentrated to a final volume of less than 150 μL using Vivaspin centrifugal concentrators (Sartorius). The collected protein sample was stored at 4° C. […] The protein concentrations were experimentally determined using the extinction coefficient of 1.4
Commercially obtained human gamma globulin (HGG), GLOBUCEL® (50 mg/mL) containing pharmaceutical excipients (Maltose) was dialyzed against water for 24 hr at 4° C. with three changes. To the aqueous solution of HGG, phosphate/citrate/histidine Buffer was added from the stock concentration of 1000 mM phosphate/citrate/histidine buffer, pH 6.0 to get a final concentration of 25 mM. To the buffered HGG, different nucleosides or nucleotides or its derivative was added individually and mixed until complete dissolution. The excipient containing HGG was concentrated to a final volume of less than 150 μL using Vivaspin centrifugal concentrators (Sartorius). The collected protein sample was stored at 4° C.

Etanercept (ENBREL®) = target: T1, Etanercept (ENBREL®) (Homo sapiens, UniProt P20333); experiment: Viscosity of Etanercept solutions (VISCOlab5000 or DV2T cone and plate viscometer); type: physicochemical; details: for Viscosity, cP: 25 mM phosphate buffer pH 6.0, 25° C.
T1 construct: purchased ENBREL®
T1 sequence (P20333 with tags, fused parts or gaps limits assumed): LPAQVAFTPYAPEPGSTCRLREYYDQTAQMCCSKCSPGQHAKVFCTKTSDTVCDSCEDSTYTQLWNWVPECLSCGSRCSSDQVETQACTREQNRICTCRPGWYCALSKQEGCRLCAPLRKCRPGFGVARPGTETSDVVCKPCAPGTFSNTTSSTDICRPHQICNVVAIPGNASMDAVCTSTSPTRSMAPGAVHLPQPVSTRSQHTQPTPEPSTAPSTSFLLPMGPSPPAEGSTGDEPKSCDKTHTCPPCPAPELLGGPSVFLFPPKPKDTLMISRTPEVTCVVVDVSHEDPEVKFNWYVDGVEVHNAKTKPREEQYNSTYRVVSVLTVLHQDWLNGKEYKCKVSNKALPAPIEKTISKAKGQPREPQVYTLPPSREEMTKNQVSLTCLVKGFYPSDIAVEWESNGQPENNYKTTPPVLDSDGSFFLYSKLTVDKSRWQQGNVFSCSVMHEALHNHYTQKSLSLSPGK
Experimental: Commercially obtained Etanercept, ENBREL®, 25 mg as a lyophilized powder (25 mg Etanercept, 40 mg mannitol, 10 mg sucrose, and 1.2 mg Tromethamine and for reconstitution 0.9% benzyl alcohol in water) was dialyzed against 25 mM phosphate buffer, pH 6.0 for 24 hr at 4° C. with three changes. To the dialysed Etanercept different viscosity-reducing agent(s) was added individually or in combination and mixed until complete dissolution. […] The collected protein sample was stored at 4° C.
[formula] at 280 nm. […] Results
Commercially obtained Etanercept, ENBREL®, 25 mg as a lyophilized powder (25 mg Etanercept, 40 mg mannitol, 10 mg sucrose, and 1.2 mg Tromethamine and for reconstitution 0.9% benzyl alcohol in water) was dialyzed against 25 mM phosphate buffer, pH 6.0 for 24 hr at 4° C. with three changes.
To the dialysed samples of above protein agents, a combination of viscosity-reducing agents nicotinic acid (acid form) and tryptophan were added and mixed until complete dissolution. […] The collected protein samples were stored at 4° C.

Molecule: Rituximab: Commercially obtained Rituximab, RITUXAN®, dialyzed against 25 mM phosphate buffer, pH 6.0
Aggregation peak area (%) (Rituximab (RITUXAN®) [1]; 0 day): 1.027%
Degradation peak area (%) (Rituximab (RITUXAN®) [1]; 0 day): Nil
Aggregation peak area (%) (Rituximab (RITUXAN®) [1]; 7 days): 0.96%
Degradation peak area (%) (Rituximab (RITUXAN®) [1]; 7 days): Nil
Percent reduction in aggregation (Rituximab (RITUXAN®) [2]; After 24 hours): 90%
Percent reduction in aggregation (Rituximab (RITUXAN®) [2]; After 48 hours): 100%

Molecule: Bevacizumab: Commercially obtained Bevacizumab, AVASTIN®, dialyzed against 25 mM phosphate buffer, pH 6.0
Degradation peak area (%) (Bevacizumab (AVASTIN®); 0 day): Nil
Standard peak area (%) (Bevacizumab (AVASTIN®); 0 day): 99.39%
Degradation peak area (%) (Bevacizumab (AVASTIN®); 7 days): Nil
Standard peak area (%) (Bevacizumab (AVASTIN®); 7 days): 99.118%

Molecule: C[C@H](N)C(=O)O [Alanine]
Viscosity (cP) @ 25° C. ([3]; HGG 222 mg/mL, excipient 10 mg/mL (112 mM), 25 mM phosphate buffer pH 6.0): 112 cP

Molecule: CC(=O)[O-].[Na+] [Sodium Acetate]
Viscosity (cP) @ 25° C. ([3]; HGG 174 mg/mL, excipient […] (100 mM), 25 mM phosphate buffer pH 6.0): 19 cP

Molecule: NCCCC[C@H](N)C(=O)O [Lysine]
Viscosity (cP) @ 25° C. ([3]; HGG 267 mg/mL, excipient 10 mg/mL (55 mM), 25 mM phosphate buffer pH 6.0): 199 cP

Molecule: Etanercept
Viscosity, cP (Etanercept (ENBREL®); Etanercept 50 mg/mL, with 10 mg/mL nicotinic acid (acid form) + 6 mg/mL tryptophan): 2 cP
Viscosity, cP (Etanercept (ENBREL®); Etanercept 50 mg/mL, without excipient): 35 cP
Viscosity, cP (Etanercept (ENBREL®); Etanercept 100 mg/mL, with 10 mg/mL nicotinic acid (acid form) + 6 mg/mL tryptophan): 3 cP
Viscosity, cP (Etanercept (ENBREL®); Etanercept 100 mg/mL, without excipient): 72 cP
Viscosity, cP (Etanercept (ENBREL®); Etanercept 150 mg/mL, with 10 mg/mL nicotinic acid (acid form) + 6 mg/mL tryptophan): 11 cP
Viscosity, cP (Etanercept (ENBREL®); Etanercept 150 mg/mL, without excipient): 135 cP
Viscosity, cP (Etanercept (ENBREL®); Etanercept 175 mg/mL, with 10 mg/mL nicotinic acid (acid form) + 6 mg/mL tryptophan): 17 cP
Viscosity, cP (Etanercept (ENBREL®); Etanercept 175 mg/mL, without excipient): 160 cP
Viscosity, cP (Etanercept (ENBREL®); Etanercept 200 mg/mL, with 10 mg/mL nicotinic acid (acid form) + 6 mg/mL tryptophan): 23 cP
Viscosity, cP (Etanercept (ENBREL®); Etanercept 200 mg/mL, without excipient): 230 cP
Viscosity, cP (Etanercept (ENBREL®); Etanercept 225 mg/mL, with 10 mg/mL nicotinic acid (acid form) + 6 mg/mL tryptophan): 40 cP
Viscosity, cP (Etanercept (ENBREL®); Etanercept 225 mg/mL, without excipient): 345 cP
Viscosity, cP (Etanercept (ENBREL®); Etanercept 250 mg/mL, with 10 mg/mL nicotinic acid (acid form) + 6 mg/mL tryptophan): 65 cP
Viscosity, cP (Etanercept (ENBREL®); Etanercept 250 mg/mL, without excipient): 439 cP
Viscosity, cP (Etanercept (ENBREL®); Etanercept 275 mg/mL, with 10 mg/mL nicotinic acid (acid form) + 6 mg/mL tryptophan): 77 cP
Viscosity, cP (Etanercept (ENBREL®); Etanercept 275 mg/mL, without excipient): 1130 cP
Viscosity, cP (Etanercept (ENBREL®); Etanercept 300 mg/mL, with 10 mg/mL nicotinic acid (acid form) + 6 mg/mL tryptophan): 139 cP
magnitude of viscosity-reducing effects (Etanercept (ENBREL®); Etanercept 275±10 mg/mL, nicotinic acid (acid form) and tryptophan added to phosphate buffer): 14.6 fold

Continued, values first:

Viscosity (cP) @ 25° C. ([3]; HGG 213 mg/mL, excipient 10 mg/mL (91 mM), 25 mM phosphate buffer pH 6.0): 171 cP
Molecule: CC(=O)C(=O)[O-].[Na+] [Pyruvate sodium salt]

Viscosity (cP) @ 25° C. ([3]; HGG 180 mg/mL, excipient 10 mg/mL (65 mM), 25 mM phosphate buffer pH 6.0): 31 cP
Molecule: N[C@@H](Cc1c[nH]cn1)C(=O)O [Histidine]

Viscosity (cP) @ 25° C. ([3]; HGG […], excipient 10 mg/mL (87 mM), 25 mM citrate buffer pH 6.0): 55 cP
Viscosity (cP) @ 25° C. ([3]; HGG […], excipient 10 mg/mL (87 mM), 25 mM phosphate buffer pH 6.0): 68 cP
Molecule: O=C(O)[C@@H]1CCCN1 [Proline]

Viscosity (cP) @ 25° C. ([3]; HGG 228 mg/mL, excipient 10 mg/mL (67 mM), 25 mM phosphate buffer pH 6.0): 170 cP
Molecule: CSCC[C@H](N)C(=O)O [Methionine]

Viscosity (cP) @ 25° C. ([3]; HGG 206 mg/mL, excipient 10 mg/mL ([…]), 25 mM phosphate buffer pH 6.0): 63 cP
Viscosity (cP) @ 25° C. ([3]; HGG 208 mg/mL, excipient 10 mg/mL ([…]), 25 mM citrate buffer pH 6.0): 73 cP
Viscosity (cP) @ 25° C. ([3]; HGG 228 mg/mL, excipient 10 mg/mL ([…]), 25 mM phosphate buffer pH 6.0): 186 cP
Molecule: NCC(=O)O [Glycine]
